Assay results published in US20210332146A1 (ACADEMIA SINICA, published 2021).

Assays:
[1] = target: T1, FcγRIIIA recombinant protein (UniProt P08637 17-208, limits assumed); assay: SPR, Biacore T200; antibody captured on anti-human Fab chip, FcγRIIIA injected (12.5-200 nM), single cycle kinetics, 1:1 model
T1 construct: also called FcRIIIA
Protocol: (§1) FcγRIIIA was transfected into HEK-293 cell line to express recombinant protein. The secreted FcγRIIIA recombinant protein was purified and then diluted to serial concentration in HBS-EP buffer (200 nM, 100 nM, 50 nM, 25 nM, and 12.5 nM). […] A serial titration of FcγRIIIA was injected and bound at the flow rate of […]. Single cycle kinetics data was fitted into 1:1 binding model using Biacore T200 evaluation software to measure the equilibrium constant (Ka/Kd).

CD20 [2] = target: T2, CD20 (human, UniProt P11836 1-297); assay: flow cytometry on Ramos cells (CD20+ B lymphoma), MFI against antibody concentration
T2 construct: whole, on cells; Target on B-lymphoma cells in flow cytometry; also called CD20 antigen; B-lymphocyte-restricted differentiation antigen
T2 sequence (looked up): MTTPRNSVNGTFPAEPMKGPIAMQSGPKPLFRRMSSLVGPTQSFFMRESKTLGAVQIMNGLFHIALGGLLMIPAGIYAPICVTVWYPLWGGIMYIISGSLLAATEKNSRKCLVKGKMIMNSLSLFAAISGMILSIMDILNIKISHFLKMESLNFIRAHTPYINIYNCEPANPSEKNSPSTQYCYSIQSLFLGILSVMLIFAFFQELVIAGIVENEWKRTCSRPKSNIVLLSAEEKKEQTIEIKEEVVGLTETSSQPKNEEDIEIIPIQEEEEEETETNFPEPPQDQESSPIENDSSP
Protocol: Binding to B-lymphoma cells. The binding of the antibodies was investigated in CD20⁺ B lymphoma cell lines (Ramos and SKW6.4) and analyzed on flow cytometry. The cells in PBS containing 1% fetal bovine serum at 2×10⁵/well on microplate were incubated on ice for 1 hr with antibodies of interest at different concentrations. The cells are washed, re-suspended in the PBS buffer, and incubated with the detecting goat anti-hIgG-Fcγ-PE on ice for 30 min. The cells are washed and subjected to analysis on FACS.

[3] = target: T1, FcγRIIIA recombinant protein; assay: SPR, Biacore T200; antibody captured on anti-human Fab chip, FcγRIIIA injected (12.5-200 nM), single cycle kinetics, 1:1 model; Rituxan reference, not glycoengineered; upper end of the range
Protocol: as §1

CD20 [4] = target: T2, CD20; assay: flow cytometry on SUDHL4 (SU-DHL4) cells, MFI against antibody concentration
[5] = target: T1, FcγRIIIA recombinant protein; assay: >
Protocol: as §1

[6] = target: T1, FcγRIIIA recombinant protein; assay: SPR as above; category letter explained in the note of Table 4
Protocol: as §1

T1 sequence (P08637 17-208 limits assumed): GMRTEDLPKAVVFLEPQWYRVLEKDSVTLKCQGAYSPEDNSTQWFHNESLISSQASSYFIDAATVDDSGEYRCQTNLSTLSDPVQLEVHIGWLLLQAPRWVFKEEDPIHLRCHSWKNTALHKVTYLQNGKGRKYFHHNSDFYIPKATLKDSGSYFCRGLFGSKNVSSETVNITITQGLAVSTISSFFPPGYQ

B1: Rituximab (antibody, human IgG1, kappa)
heavy: not shown
light: QIVLSQSPAILSASPGEKVTMTCRASSSVSYIHWFQQKPGSSPKPWIYATSNLASGVPVRFSGSGSGTSYSLTISRVEAEDAATYYCQQWTSNPPTFGGGTKLEIKRTVAAPSVFIFPPSDEQLKSGTASVVCLLNNFYPREAKVQWKVDNALQSGNSQESVTEQDSKDSTYSLSSTLTLSKADYEKHKVYACEVTHQGLSSPVTKSFNRGEC
modifications: heterogeneous N-glycans at Asn-297 of the Fc (more than 50 glycoforms; greater than 90% of N-glycans are fucosylated)
notes: Chimeric anti-CD20 IgG made in CHO cells, purchased from Genentech; DrugBank DB00073; also called Rituxan; RTX
- Kd [1]: 100 nM
- EC50 (read off the curve) (CD20 [2]): ~0.6 µg/mL
- Kd [3]: ≤ 300 nM
- EC50 (read off the curve) (CD20 [4]): ~0.6 µg/mL

B2: anti-CD20 GAb101 (antibody, human IgG1, kappa)
heavy: not shown
light: QIVLSQSPAILSASPGEKVTMTCRASSSVSYIHWFQQKPGSSPKPWIYATSNLASGVPVRFSGSGSGTSYSLTISRVEAEDAATYYCQQWTSNPPTFGGGTKLEIKRTVAAPSVFIFPPSDEQLKSGTASVVCLLNNFYPREAKVQWKVDNALQSGNSQESVTEQDSKDSTYSLSSTLTLSKADYEKHKVYACEVTHQGLSSPVTKSFNRGEC
modifications: homogeneous N-glycan at Asn-297, no core fucose: glycan-101 (Sia2Gal2GlcNAc2Man3GlcNAc) transferred onto the GlcNAc of GAb201; 2,6 sialic acid linkage
notes: the text gives them the other way round
- EC50 (read off the curve) (CD20 [4]): ~0.7 µg/mL
- Fold (increase against Rituxan) [5]: 30 fold

B3: anti-CD20 GAb102 (antibody, human IgG1, kappa)
heavy: not shown
light: QIVLSQSPAILSASPGEKVTMTCRASSSVSYIHWFQQKPGSSPKPWIYATSNLASGVPVRFSGSGSGTSYSLTISRVEAEDAATYYCQQWTSNPPTFGGGTKLEIKRTVAAPSVFIFPPSDEQLKSGTASVVCLLNNFYPREAKVQWKVDNALQSGNSQESVTEQDSKDSTYSLSSTLTLSKADYEKHKVYACEVTHQGLSSPVTKSFNRGEC
modifications: homogeneous N-glycan at Asn-297, no core fucose: glycan-102 (SiaGal2GlcNAc2Man3GlcNAc) transferred onto the GlcNAc of GAb201
notes: as for B2
- Fold (increase against Rituxan) [6]: > 30 fold

B4: anti-CD20 GAb106 (antibody, human IgG1, kappa)
heavy: not shown
light: QIVLSQSPAILSASPGEKVTMTCRASSSVSYIHWFQQKPGSSPKPWIYATSNLASGVPVRFSGSGSGTSYSLTISRVEAEDAATYYCQQWTSNPPTFGGGTKLEIKRTVAAPSVFIFPPSDEQLKSGTASVVCLLNNFYPREAKVQWKVDNALQSGNSQESVTEQDSKDSTYSLSSTLTLSKADYEKHKVYACEVTHQGLSSPVTKSFNRGEC
modifications: homogeneous N-glycan at Asn-297, no core fucose: glycan-106 (GalGlcNAcMan3GlcNAc) transferred onto the GlcNAc of GAb201
notes: as for B2
- Kd [1]: 7 to 30 nM

B5: anti-CD20 GAb105 (antibody, human IgG1, kappa)
heavy: not shown
light: QIVLSQSPAILSASPGEKVTMTCRASSSVSYIHWFQQKPGSSPKPWIYATSNLASGVPVRFSGSGSGTSYSLTISRVEAEDAATYYCQQWTSNPPTFGGGTKLEIKRTVAAPSVFIFPPSDEQLKSGTASVVCLLNNFYPREAKVQWKVDNALQSGNSQESVTEQDSKDSTYSLSSTLTLSKADYEKHKVYACEVTHQGLSSPVTKSFNRGEC
modifications: homogeneous N-glycan at Asn-297, no core fucose: glycan-105 (GalGlcNAc2Man3GlcNAc) transferred onto the GlcNAc of GAb201
notes: as for B2
- Fold (increase against Rituxan) [6]: > 30 fold

B6: anti-CD20 GAb104 (antibody, human IgG1, kappa)
heavy: not shown
light: QIVLSQSPAILSASPGEKVTMTCRASSSVSYIHWFQQKPGSSPKPWIYATSNLASGVPVRFSGSGSGTSYSLTISRVEAEDAATYYCQQWTSNPPTFGGGTKLEIKRTVAAPSVFIFPPSDEQLKSGTASVVCLLNNFYPREAKVQWKVDNALQSGNSQESVTEQDSKDSTYSLSSTLTLSKADYEKHKVYACEVTHQGLSSPVTKSFNRGEC
modifications: homogeneous N-glycan at Asn-297, no core fucose: glycan-104 (Gal2GlcNAc2Man3GlcNAc) transferred onto the GlcNAc of GAb201
notes: as for B2
- Fold (increase against Rituxan) [6]: > 30 fold
